This data set in a line: self-splicing fitness, log relative to wild type (ln ratio); higher = more splicing; Tetrahymena group I intron in knt gene, E. coli kanamycin selection, DiMSum; sequences stand for … in CUCUCU…GGAGGGAAAAGUUAUCAGGCAUGCACCUGGUAGCUAGUCUUUAAACCAAUAGAUUGCAUCGGUUUAAAAGGCAAGACCGUCAAAUUGCGGGAAAGGGGUCAACAGCCGUUCAGUACCAAGUCUCAGGGGAAACUUUGAGAUGGCCUUGCAAAGGGUAUGGUAAUAAGCUGACGGACAUGGUCCUAACCACGCAGCCAAGUCCUAAGUCAACAGAUCUUCUGUUGAUAUGGAUGCAGUUCACAGACUAAAUGUCGGUCGGGGAAGAUGUAUUCUUCUCAUAAGAUAUAGUCGGACCUCUCCUUAAUGGGAGCUAGCGGAUGAAGUGAUGCAACACUGGAGCCGCUGGGAACUAAUUUGUAUGCGAAAGUAUAUUGAUUAGUUUUGGAGUACUCGUGGUCG
An outline of the steps:
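Pooled colonies went to amplicon sequencing on an Illumina HiSeq 2500 after six replicate transformations. The plates were LB agar with 100 μg/mL carbenicillin, 50 μM IPTG and 0.2% rhamnose, with or without 25 μg/mL kanamycin, incubated overnight at 37°C or 30°C. The E. coli BL21(DE3) library had all eight P1ex-region intron nucleotides randomised, the intron placed in the knt kanamycin-resistance gene on pET-22b(+). DiMSum fitness is the error-weighted combination of replicate fold changes, kanamycin against none, normalised to wild type.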

This is an account of results in the supplement of paper PMC7877785.

± gives the uncertainty stated by the source.

Take GAUUAGCAAUAUUACGAGCC: the “self-splicing fitness (ln)” value is, setting by setting: (30 °C) -0.73 ± 0.31; (37 °C) -1.4 ± 0.38.
On the same counts, the results for GGGUAGCAAUAUUACGAUUG are -1.63 ± 0.23 and -2.13 ± 0.25.
With UACGAGCAAUAUUACGCAUG, the “self-splicing fitness (ln)” value is -2.37 ± 0.25 (30 °C) and -2.25 ± 0.24 (37 °C).
On the same counts, the results for AACGAGCAAUAUUACGUGGA are -2.62 ± 0.33 and -2.15 ± 0.19.
On the same counts, the results for GCCCAGCAAUAUUACGACGA are -1.31 ± 0.15 and -0.475 ± 0.15.
On the same counts, the results for GUCUAGCAAUAUUACGGUCG are -1.06 ± 0.089 and -0.996 ± 0.11.
As for CCUCAGCAAUAUUACGGGGU, the “self-splicing fitness (ln)” value by setting is: (30 °C) -3.88 ± 0.15; (37 °C) -3.49 ± 0.2.
On the same counts, the results for UUGCAGCAAUAUUACGUAUA are -1.32 ± 0.12 and -1.01 ± 0.12.
UUAGAGCAAUAUUACGGAGG: the “self-splicing fitness (ln)” value was -2.3 ± 0.13 (30 °C) and -1.84 ± 0.18 (37 °C).
For CCGCAGCAAUAUUACGAAUC, the “self-splicing fitness (ln)” value (30 °C) was -1.78 ± 0.17.
On to UUGCAGCAAUAUUACGGAUA, for which the “self-splicing fitness (ln)” value is, setting by setting: (30 °C) -1.92 ± 0.15; (37 °C) -1.12 ± 0.17.
In the case of GUAAAGCAAUAUUACGGCGU, the “self-splicing fitness (ln)” value runs as follows: (30 °C) -0.369 ± 0.069; (37 °C) 0.409 ± 0.11.
On the same counts, the results for UAGAAGCAAUAUUACGACAG are -0.764 ± 0.12 and -0.152 ± 0.14.
On the same counts, the results for AUCGAGCAAUAUUACGGUAU are -2.46 ± 0.13 and -1.12 ± 0.11.
On the same counts, the results for AUUAAGCAAUAUUACGAUUC are -1.89 ± 0.1 and -0.797 ± 0.12.
With UCGCAGCAAUAUUACGGAUU, the “self-splicing fitness (ln)” value reads like this: (30 °C) -3.46 ± 0.17; (37 °C) -2.51 ± 0.18.
On to UUGCAGCAAUAUUACGUGCC, for which the “self-splicing fitness (ln)” value reads like this: (30 °C) -2.11 ± 0.14; (37 °C) -1.18 ± 0.15.
On the same counts, the results for CGGUAGCAAUAUUACGUCUG are -0.631 ± 0.086 and -0.338 ± 0.11.
With CCUUAGCAAUAUUACGGGGA, the “self-splicing fitness (ln)” value is -3.75 ± 0.29 (30 °C) and -2.63 ± 0.23 (37 °C).
The matching figures for AAUUAGCAAUAUUACGCGCG: -1.62 ± 0.17 and -0.951 ± 0.18.
On the same counts, the results for CGCUAGCAAUAUUACGCACU are -1.27 ± 0.089 and -0.65 ± 0.11.
Turning to AUAGAGCAAUAUUACGUUAG, the “self-splicing fitness (ln)” value by setting is: (30 °C) -1.39 ± 0.11; (37 °C) -1.21 ± 0.16.
The matching figures for GCGCAGCAAUAUUACGGUCG: -2.26 ± 0.23 and -1.81 ± 0.22.
The matching figures for GAUUAGCAAUAUUACGCGUG: -1.23 ± 0.091 and 0.595 ± 0.11.
The matching figures for UGGAAGCAAUAUUACGUUUU: -3.63 ± 0.33 and -2.43 ± 0.27.
For the sequence UAACAGCAAUAUUACGCCGA, the “self-splicing fitness (ln)” value (30 °C) is -1.95 ± 0.11 and the “self-splicing fitness (ln)” value (37 °C) was -0.415 ± 0.089.
On the same counts, the results for UAUAAGCAAUAUUACGCUCG are -0.59 ± 0.082 and -0.442 ± 0.11.
The matching figures for CGGGAGCAAUAUUACGUUCA: -3.69 ± 0.25 and -2.53 ± 0.26.
On the same counts, the results for GUCGAGCAAUAUUACGUUAU are -0.538 ± 0.12 and -2.13 ± 0.21.
As to CCCGAGCAAUAUUACGCUCA, the “self-splicing fitness (ln)” value reads like this: (30 °C) -2.87 ± 0.32; (37 °C) -2.7 ± 0.36.
On the same counts, the results for AUCGAGCAAUAUUACGCCGU are -2.52 ± 0.21 and -1.46 ± 0.31.
On the same counts, the results for AGUAAGCAAUAUUACGAGUC are -2.96 ± 0.23 and -1.45 ± 0.17.
On the same counts, the results for AAGGAGCAAUAUUACGGUUU are -2.45 ± 0.12 and -1.07 ± 0.11.
On to UACAAGCAAUAUUACGAAAU, for which the “self-splicing fitness (ln)” value (30 °C) was -2.52 ± 0.16 and the “self-splicing fitness (ln)” value (37 °C) was -3.01 ± 0.29.
On the same counts, the results for CAAAAGCAAUAUUACGGCAU are -1.85 ± 0.11 and -1.4 ± 0.14.
On the same counts, the results for UUAUAGCAAUAUUACGCGGG are -1.86 ± 0.17 and -1.92 ± 0.3.
The matching figures for AUUGAGCAAUAUUACGGCCU: -3.53 ± 0.21 and -0.674 ± 0.11.
In the case of GACUAGCAAUAUUACGAGCU, the “self-splicing fitness (ln)” value runs as follows: (30 °C) -1.61 ± 0.13; (37 °C) -0.918 ± 0.093.
Take UCUAAGCAAUAUUACGCUUG: the “self-splicing fitness (ln)” value (37 °C) is -2.59 ± 0.41.
In the case of AGCGAGCAAUAUUACGGCGG, the “self-splicing fitness (ln)” value (30 °C) is -1.1 ± 0.19 and the “self-splicing fitness (ln)” value (37 °C) was -1.8 ± 0.24.
On the same counts, the results for AUGUAGCAAUAUUACGACCU are -0.739 ± 0.28 and -0.136 ± 0.34.
On the same counts, the results for CCGGAGCAAUAUUACGCAUG are -1.66 ± 0.14 and 0.0371 ± 0.22.
For the sequence ACCCAGCAAUAUUACGAUGA, the “self-splicing fitness (ln)” value (30 °C) was -1.43 ± 0.09 and the “self-splicing fitness (ln)” value (37 °C) was -0.256 ± 0.088.
CUGAAGCAAUAUUACGUGGU: the “self-splicing fitness (ln)” value was -3.3 ± 0.15 (30 °C) and -1.41 ± 0.18 (37 °C).
On the same counts, the results for UUCGAGCAAUAUUACGGGUG are -1.78 ± 0.074 and -1.42 ± 0.086.
The matching figures for CAGAAGCAAUAUUACGCAAG: -2.45 ± 0.098 and -1.21 ± 0.092.
As to CGCAAGCAAUAUUACGCGUG, the “self-splicing fitness (ln)” value was -3.08 ± 0.12 (30 °C) and -1.99 ± 0.13 (37 °C).
For the sequence UCUUAGCAAUAUUACGCGGG, the “self-splicing fitness (ln)” value runs as follows: (30 °C) -2.21 ± 0.22; (37 °C) -2.5 ± 0.34.
Consider UAGGAGCAAUAUUACGAUAU, for which the “self-splicing fitness (ln)” value was -3.96 ± 0.33 (30 °C) and -2.46 ± 0.28 (37 °C).
In the case of GGGAAGCAAUAUUACGAGUC, the “self-splicing fitness (ln)” value was -2.56 ± 0.17 (30 °C) and -1.36 ± 0.16 (37 °C).
Turning to CGCGAGCAAUAUUACGUUCC, the “self-splicing fitness (ln)” value (30 °C) was -3.49 ± 0.32.
As for UCGCAGCAAUAUUACGACCG, the “self-splicing fitness (ln)” value was -0.544 ± 0.11 (30 °C) and -0.235 ± 0.15 (37 °C).
With GGCGAGCAAUAUUACGCAUU, the “self-splicing fitness (ln)” value runs as follows: (30 °C) -1.13 ± 0.11; (37 °C) -0.998 ± 0.14.
The matching figures for CAACAGCAAUAUUACGGAUU: -2.92 ± 0.13 and -1.94 ± 0.14.
The matching figures for GUAUAGCAAUAUUACGGGCU: -2.86 ± 0.17 and -1.38 ± 0.19.
The matching figures for AGGCAGCAAUAUUACGUGGA: -4.02 ± 0.26 and -2.6 ± 0.14.
Consider ACAUAGCAAUAUUACGACAC, for which the “self-splicing fitness (ln)” value (30 °C) was -1.62 ± 0.15 and the “self-splicing fitness (ln)” value (37 °C) is -1.29 ± 0.21.
Take UCGUAGCAAUAUUACGAGGC: the “self-splicing fitness (ln)” value (30 °C) was -0.464 ± 0.44.
On to CCUCAGCAAUAUUACGGUGC, for which the “self-splicing fitness (ln)” value runs as follows: (30 °C) -2.28 ± 0.15; (37 °C) -2.77 ± 0.48.
UGCUAGCAAUAUUACGCCAA: for the setting “37 °C”, the “self-splicing fitness (ln)” value was 0.0147 ± 0.24.
For UAACAGCAAUAUUACGUACA, the “self-splicing fitness (ln)” value is, setting by setting: (30 °C) -0.576 ± 0.071; (37 °C) -0.319 ± 0.092.
